Assay results from patent US7037663B2, “Human zona pellucida protein 3 and uses thereof” (Eastern Virginia Medical School, priority 1998, dated 2006).
Several values for one entry are separate records, joined by “and”; a condition that tells them apart may be missing. Equal entries are not always repeated.

What was measured:
[1] = test system: sperm-zona pellucida binding; assay: Hemizona assay (HZA), competitive inhibition of sperm-zona binding, first series; format: cell-based, human
Text: An inverted, phase-contrast microscope equipped with a micromanipulation system was routinely employed to cut the oocyte into halves to obtain matching hemizonae. Oocytes used in the experiments were obtained from surgically-removed ovarian tissue or discarded from IVF therapy under approval of the Institutional Review Board at Eastern Virginia Medical School. The hemizonae were washed in PBS to completely deplete the cytoplasm. Sperm samples were from healthy fertile donors. A swim-up procedure was applied to obtain motile sperm, which were then adjusted to 0.5 million/ml in Human Tubal Fluid (HTF) supplemented with 0.3% Human Serum Albumin (HSA) for hemizona assay. In one Petri dish, one droplet of 100 ul of sperm suspension was placed as a control. Another droplet of sperm was pre-treated with rhZP3. One hemizona was placed into the control droplet and the matching hemizona was placed in the sperm droplet treated with rhZP3. Five pairs of hemizona were used for each experiment. All dishes were incubated at 37° C., 5% CO2 for 4 hours. Each hemizona was removed and rinsed 15 times in PBS, and transferred to the counting dish. The number of sperm bound to the surface of each hemizona was counted under phase microscopy. The HZI was calculated to evaluate rhZP3-binding activity (competitive inhibition) as follows: number of sperm bound for treatment/number of sperm bound for control×100.

[2] = Isoelectric focusing electrophoresis; format: physicochemical; conditions: ampholytes pH 3-10 and pH 4-8
Protocol: For further biochemical analysis, isoelectric focusing electrophoresis was performed. Approximately five microgram of recombinant ZP3 was loaded into an isoelectrophoresis tube with ampholytes (pH 3-10) in a wide range, and ampholytes (pH 4-8) in a narrow range. The same amount protein sample isolated from the PA-1 cells without transfected with hZP3 cDNA was used as a control.

[3] = test system: human sperm; assay: Acrosome reaction of live sperm by FITC-PSA, second series; format: cell-based
Protocol: Determination of the acrosome reaction—The proportion of live acrosome-reacted spermatozoa incubated under capacitating conditions was determined with the fluorescent probe fluorescein isothiocyanate-labeled Pisum Sativum Agglutinin (FITC-PSA, Sigma) after staining with a supravital stain (Hoechst 33258, Sigma) following established techniques (12,13). At least 200 sperm per sample were evaluated in duplicate at 600× magnification using an epifluorescence microscope equipped with phase-contrast optics (Optiphot; Nikon, Melville, N.Y.). Slides were coded and read in a blind fashion.
A calcium ionophore agent (A23187, Sigma) tested at 5 μM and human acid solubilized zona pellucida tested at a final concentration of 4 zona/10 μl were used as positive controls (20). In further experiments, the acrosomal status was assessed by transmission electron microscopy. Spermatozoa were fixed by mixing sperm suspensions with equal volumes of 2% (v/v) glutaraldehyde (in 3 mM CaCl2 and 0.1 M sodium cacodylate); thereafter, samples were dehydrated twice and prepared for thin sectioning using previously published procedures. Ultrastructural examination was performed with a transmission electron microscope (Jeol JEM-1200 EX II, Peabody, Mass.).
Experiment 2: Characterization of the acrosome reaction inducing activity of the rhZP3 in dose- and sperm capacitation-dependency studies—Motile sperm fractions from 29 ejaculates of 11 different donors were incubated under capacitating conditions for 3 hours and assayed for acrosome reaction using FITC-PSA. Following swim-up, sperm aliquots were pre-incubated for 30 minutes with rhZP3 (30 ng/ml), A23187 (positive control), culture medium from non-transfected PA-cells (NT) or sperm culture medium (negative controls). This was the initially selected dose of rhZP3 to be tested as it had proven to effect significant inhibition of sperm-zona binding in the HZA.
The dose-dependent effect of rhZP3 on acrosome reaction was examined in the swim-up fractions obtained from four different donors. The fractions were capacitated for 3 hours and exposed for 30 min to rhZP3 at final concentrations of 0, 7.5, 15, 30, 60, 120, 240, 480, 960 and 1920 ng/ml. The capacitation-dependency of the acrosome reaction-inducing activity of rhZP3 was assessed in the swim-up fractions of four ejaculates from four different donors. Capacitation times included: 0 (immediately post-swim-up), 1, 4, 8, 12 and 24 hours. After the capacitation period, rhZP3 was added to the sperm suspension at a final concentration of 30 ng/ml.
In another set of experiments, three different ejaculates were used to compare the effects of the rhZP3 (tested at 500 ng/ml) with those of solubilized zonae pellucidae and the calcium ionophore. Further, the induction of the acrosome reaction was assessed in parallel with FITC-PSA and transmission electron microscopy. The goal of these studies was to compare the morphological features of the acrosome reaction between agonists and also between the agonist-induced and basal exocytosis rates.

[4] = test system: human sperm; conditions: Dong et al 2000; cited from earlier work

B1: rhZP3: recombinant human zona pellucida protein 3 with six-histidine tail, expressed in human ovarian PA-1 cells; secreted glycoprotein of approximately 65 Kd (protein)
chain: QPLWLLQGGASHPETSVQPVLVECQEATLMVMVSKDLFGTGKLIRAADLTLGPEACEPLVSMDTEDVVRFEVGLHECGNSMQVTDDALVYSTFLLHDPRPVGNLSIVRTNRAEIPIECRYPRQGNVSSQAILPTWLPFRTTVFSEEKLTFSLRLMEENWNAEKRSPTFHLGDAAHLQAEIHTGSHVPLRLFVDHCVATPTPDQNASPYHTIVDFHGCLVDGLTDASSAFKVPRPGPDTLQFTVDVFHFANDSRNMIYITCHLKVTLAEQDPDELNKACSFSKPSNSWFPVEGSADICQCCNKGDCGTPSHSRRQPHVMSQWSRSASRNHHHHHH
- inhibition of sperm-ZP binding ([1]; 30 ng/ml, sperm pre-incubated 30 min): approximately 60%
- HZI (Mean ± SEM) ([1]; test reagent 30 ng/ml versus control 30 ng/ml NT): 44.5 (3.6)
- HZI (Mean ± SEM) ([1]; test reagent 30 ng/ml versus control HTF/0.5% HSA, 30 min pre-incubation, 4 h with hemizona): 43.6 (3.3)
- isoelectric point (PI) [2]: 4.60±0.05 and ~5.60
- isoelectric point (PI) ([2]; listed as recombinant human ZP3): 4.6±0.05
- concentration of highest acrosome reaction-inducing activity [3]: 0.5 to 2 µg/mL
- concentration range of highest stimulation (maximal effects) of acrosome reaction [3]: 500-2,000 ng/ml
- potency relative to CHO cell product ([3]; 0.5-2 μg/ml versus 15-20 μg/ml): at least 10 times
- minimally effective dose, induction of the acrosome reaction ([3]; 3 h capacitation, 30 min exposure): 30 ng/mL
- highest stimulation of acrosome reaction, increase from baseline conditions ([3]; in the range of 500-2,000 ng/ml): approximately 210%
- capacitation time of maximal stimulation of acrosome reaction ([3]; rhZP3 30 ng/ml): 8 to 10 h
- live, acrosome reacted sperm ([3]; rhZP3 30 ng/ml, A23187 5 μM, 3 h capacitation, 30 min exposure): 19±4.1%
- induction of the acrosome reaction ([3]; rhZP3 500 ng/ml, solubilized zona 4 zona/10 μl, A23187 5 μM): 28.2±5.6%
- range of maximal effect, acrosome reaction-inducing activity [4]: 30-1,000 ng/ml
